From PMC4753521, “Real-time and simultaneous monitoring of the phosphorylation and enhanced interaction of p53 and XPC acidic domains with the TFIIH p62 subunit” (Oncogenesis, 2015)
Non-standard residues stand in square brackets, D forms with d. No end group written: not given here. pT = C[C@@H](OP(=O)(O)O)[C@H](N)C(=O)O; pS = N[C@@H](COP(=O)(O)O)C(=O)O

T1: human TFIIH p62-PH domain (residues 1–108) (human, UniProt P32780 1-108)
T1 construct: PH domain of the p62 subunit of the general transcription factor TFIIH, human, residues 1-108; Used 15N- or 13C/15N-labelled in the NMR experiments, unlabelled when added to XPC-AF; also called pleckstrin homology (PH) domain of the p62 subunit of TFIIH
T1 sequence (looked up): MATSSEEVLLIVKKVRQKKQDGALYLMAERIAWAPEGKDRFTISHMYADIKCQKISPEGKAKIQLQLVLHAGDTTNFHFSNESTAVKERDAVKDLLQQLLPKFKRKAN


Assays:
Conditions in all cases: both partners purified
[1] = target: T1, human TFIIH p62-PH domain (residues …); assay: NMR titration; real-time NMR of 150 μl of 50 μM complex of labeled XPC-AF and labeled p62-PH; 2.5 μg CK2 added; 20 mM potassium phosphate (pH 6.8), 1 mM ATP, 10 mM MgCl2, 5 mM deuterated DTT, 10% D2O
[2] = target: T1, human TFIIH p62-PH domain (residues …); assay: ITC; VP-ITC; 100 μM XPC peptide in the syringe (25 × 20 μl injections), 2 ml of 10 μM p62-PH in the cell; 20 °C; 20 mM potassium phosphate (pH 6.8)
[3] = target: T1, human TFIIH p62-PH domain (residues …); assay: NMR titration; 1H,15N HSQC perturbation: p53-TAD2 peptides added to 15N-labeled p62-PH at a molar ratio of 1:2.5 (p62:p53); 20 mM potassium phosphate (pH 6.8), 1 mM ATP, 10 mM MgCl2, 5 mM deuterated DTT, 10% D2O; 32 °C

Binder | Kd [2] | binding result [3] | further results
AHHLKRGATMNEDSNEEEEE[pS]ENDWEEVEELSEPVLGDVRESTAFSRS (domain or fragment, UniProt Q01831 109-156, looked up, also: 13C/15N-labeled, acidic fragment of the nucleotide excision repair factor XPC, human, residues 109-156; 13C/15N-labelled; in the complex with p62-PH phosphorylation of Ser129 reached ~80% at ~2 h; also called Ser129-phosphorylated XPC-AF; source: E. coli Rosetta 2 (DE3) pLysS, purified (Ni-NTA, thrombin digestion, Superdex30); phosphorylated by CK2 in the NMR tube) [human XPC-AF (residues 109–156) phosphorylated at Ser129 by CK2] | – | – | binding result [1]: binds
EEEEESENDWEEVEELSEP (peptide, UniProt Q01831 124-142, looked up, XPC, human, residues 124-142; also called unphosphorylated XPC peptide; source: synthetic peptide, bought: Sigma Genosys Japan) [unphosphorylated peptide of human XPC (residues 124–142)] | 132 nM | – | –
EEEEE[pS]ENDWEEVEELSEP (peptide, UniProt Q01831 124-142, looked up, XPC, human, residues 124-142; also called Ser129-phosphorylated XPC peptide; source: synthetic peptide, bought: Sigma Genosys Japan) [Ser129-phosphorylated peptide of human XPC (residues 124–142)] | 41 nM | – | –
DDLML[pS]PDDIEQWFTEDPGPDE (peptide, UniProt P04637 41-62, looked up, p53 TAD2, human, residues 41-62; also called Ser46-phosphorylated p53-TAD2; source: synthetic peptide, bought: Sigma Genosys Japan) [Ser46-phosphorylated peptide of human p53-TAD2 (residues 41–62)] | – | binds | –
DDLMLSPDDIEQWF[pT]EDPGPDE (peptide, UniProt P04637 41-62, looked up, p53 TAD2, human, residues 41-62; also called Thr55-phosphorylated p53-TAD2; TP; source: synthetic peptide, bought: Sigma Genosys Japan) [Thr55-phosphorylated peptide of human p53-TAD2 (residues 41–62)] | – | binds | –
DDLML[pS]PDDIEQWF[pT]EDPGPDE (peptide, UniProt P04637 41-62, looked up, p53 TAD2, human, residues 41-62; also called Ser46, Thr55 double-phosphorylated p53-TAD2; source: synthetic peptide, bought: Sigma Genosys Japan) [Ser46, Thr55 double-phosphorylated peptide of human p53-TAD2 (residues 41–62)] | – | binds | –
